± gives the standard deviation of the averaged measurements.
Test: total protein half-life in vivo (active degradation + dilution); higher = more stable protein
[1] = E. coli NCM3722 delta-clpP delta-lon delta-hslV, growth: N-lim chemostat, doubling time 6 h
[2] = E. coli NCM3722 delta-clpP, growth: N-lim chemostat, doubling time 6 h
[3] = E. coli NCM3722 delta-hslV, growth: N-lim chemostat, doubling time 6 h
[4] = E. coli NCM3722 delta-lon, growth: N-lim chemostat, doubling time 6 h
[5] = E. coli NCM3722 delta-smpB, growth: N-lim chemostat, doubling time 6 h
[6] = wild type E. coli NCM3722, growth: C-lim chemostat, doubling time 3 h
[7] = wild type E. coli NCM3722, growth: C-lim chemostat, doubling time 6 h
[8] = wild type E. coli NCM3722, growth: C-lim chemostat, doubling time 12 h
[9] = wild type E. coli NCM3722, growth: N-lim chemostat, doubling time 6 h
[10] = wild type E. coli NCM3722, growth: N-lim chemostat, doubling time 12 h
[11] = wild type E. coli NCM3722, growth: P-lim chemostat, doubling time 6 h
[12] = wild type E. coli NCM3722, growth: P-lim chemostat, doubling time 12 h

Question: What does the source list for “MSNNIRIEEDLLGTREVPADAYYGVHTLRAIENFYISNNKISDIPEFVRGMVMVKKAAAMANKELQTIPKSVANAIIAACDEVLNNGKCMDQFPVDVYQGGAGTSVNMNTNEVLANIGLELMGHQKGEYQYLNPNDHVNKCQSTNDAYPTGFRIAVYSSLIKLVDAINQLREGFERKAVEFQDILKMGRTQLQDAVPMTLGQEFRAFSILLKEEVKNIQRTAELLLEVNLGATAIGTGLNTPKEYSPLAVKKLAEVTGFPCVPAEDLIEATSDCGAYVMVHGALKRLAVKMSKICNDLRLLSSGPRAGLNEINLPELQAGSSIMPAKVNPVVPEVVNQVCFKVIGNDTTVTMAAEAGQLQLNVMEPVIGQAMFESVHILTNACYNLLEKCINGITANKEVCEGYVYNSIGIVTYLNPFIGHHNGDIVGKICAETGKSVREVVLERGLLTEAELDDIFSVQNLMHPAYKAKRYTDESEQ [P0AC38]”?
Answer: total protein half-life in vivo [1]: 5.54 ± 0.31 h; total protein half-life in vivo [2]: 5.5 ± 1.1 h; total protein half-life in vivo [3]: 1.13 ± 0.052 h; total protein half-life in vivo [4]: 1.68 ± 0.16 h; total protein half-life in vivo [5]: 1.68 ± 0.45 h; total protein half-life in vivo [6]: 2.42 ± 0.11 h; total protein half-life in vivo [7]: 4.284 ± 0.012 h; total protein half-life in vivo [8]: 6.58 ± 0.62 h; total protein half-life in vivo [9]: 3.1 ± 0.18 h; total protein half-life in vivo [10]: 2.93 ± 0.087 h; total protein half-life in vivo [11]: 4.79 ± 0.14 h; total protein half-life in vivo [12]: 9.237 ± 0.036 h

Question: With “MSNQEPATILLIDDHPMLRTGVKQLISMAPDITVVGEASNGEQGIELAESLDPDLILLDLNMPGMNGLETLDKLREKSLSGRIVVFSVSNHEEDVVTALKRGADGYLLKDMEPEDLLKALHQAAAGEMVLSEALTPVLAASLRANRATTERDVNQLTPRERDILKLIAQGLPNKMIARRLDITESTVKVHVKHMLKKMKLKSRVEAAVWVHQERIF [P0AF28]” as the sequence, how does the “total protein half-life in vivo” value [1] read?
Answer: 6.09 ± 2.1 h

Question: And the “total protein half-life in vivo” value [2]?
Answer: 5.77 ± 2.1 h

Question: And the “total protein half-life in vivo” value [3]?
Answer: 4.05 ± 0.41 h

Question: And the “total protein half-life in vivo” value [4]?
Answer: 4.81 ± 0.33 h

Question: What about the “total protein half-life in vivo” value [5] of the same sequence?
Answer: 4.166 ± 0.011 h

Question: What about the “total protein half-life in vivo” value [6] of the same sequence?
Answer: 3.06 ± 0.19 h

Question: And the “total protein half-life in vivo” value [7]?
Answer: 5.03 ± 0.15 h

Question: And the “total protein half-life in vivo” value [8]?
Answer: 10.1 ± 1.3 h

Question: What about the “total protein half-life in vivo” value [9] of the same sequence?
Answer: 4.19 ± 0.087 h

Question: And the “total protein half-life in vivo” value [10]?
Answer: 7.26 ± 0.29 h

Question: And the “total protein half-life in vivo” value [11]?
Answer: 5.39 ± 0.99 h

Question: And the “total protein half-life in vivo” value [12]?
Answer: 9.74 ± 1.3 h

Question: With “MSNQFGDTRIDDDLTLLSETLEEVLRSSGDPADQKYVELKARAEKALDDVKKRVSQASDSYYYRAKQAVYRADDYVHEKPWQGIGVGAAVGLVLGLLLARR [P0AEH5]” as the sequence, how does the “total protein half-life in vivo” value [1] read?
Answer: 6.419 ± 0.022 h

Question: What about the “total protein half-life in vivo” value [3] of the same sequence?
Answer: 6.88 ± 0.34 h

Question: What about the “total protein half-life in vivo” value [4] of the same sequence?
Answer: > 8 h

Question: And the “total protein half-life in vivo” value [5]?
Answer: 5.64 ± 0.42 h

Question: What about the “total protein half-life in vivo” value [7] of the same sequence?
Answer: 6.46 ± 0.78 h

Question: What about the “total protein half-life in vivo” value [8] of the same sequence?
Answer: 10.1 ± 0.52 h

Question: And the “total protein half-life in vivo” value [9]?
Answer: 5.99 ± 0.7 h

Question: What about the “total protein half-life in vivo” value [10] of the same sequence?
Answer: 14.8 ± 0.89 h

Question: And the “total protein half-life in vivo” value [11]?
Answer: 5.16 ± 1.5 h

Question: What about the “total protein half-life in vivo” value [12] of the same sequence?
Answer: 12.6 ± 0.4 h

Question: With “MSNQGEYPEDNRVGKHEPHDLSLTRRDLIKVSAATAATAVVYPHSTLAASVPAATPAPEIMPLTLKVNGKTEQLEVDTRTTLLDTLRENLHLIGTKKGCDHGQCGACTVLVNGRRLNACLTLAVMHQGAEITTIEGLGSPDNLHPMQAAFIKHDGFQCGYCTSGQICSSVAVLKEIQDGIPSHVTVDLVSAPETTADEIRERMSGNICRCGAYANILAAIEDAAGEIKS” as the sequence, how does the “total protein half-life in vivo” value [1] read?
Answer: 2.91 ± 0.9 h

Question: And the “total protein half-life in vivo” value [4]?
Answer: 2.02 h

Question: With “MSNRKYFGTDGIRGRVGDAPITPDFVLKLGWAAGKVLARHGSRKIIIGKDTRISGYMLESALEAGLAAAGLSALFTGPMPTPAVAYLTRTFRAEAGIVISASHNPFYDNGIKFFSIDGTKLPDAVEEAIEAEMEKEISCVDSAELGKASRIVDAAGRYIEFCKATFPNELSLSELKIVVDCANGATYHIAPNVLRELGANVIAIGCEPNGVNINAEVGATDVRALQARVLAEKADLGIAFDGDGDRVIMVDHEGNKVDGDQIMYIIAREGLRQGQLRGGAVGTLMSNMGLELALKQLGIPFARAKVGDRYVLEKMQEKGWRIGAENSGHVILLDKTTTGDGIVAGLQVLAAMARNHMSLHDLCSGMKMFPQILVNVRYTAGSGDPLEHESVKAVTAEVEAALGNRGRVLLRKSGTEPLIRVMVEGEDEAQVTEFAHRIADAVKAV” as the sequence, how does the “total protein half-life in vivo” value [1] read?
Answer: 6.02 ± 0.36 h

Question: And the “total protein half-life in vivo” value [2]?
Answer: 6.03 ± 0.15 h

Question: And the “total protein half-life in vivo” value [3]?
Answer: 5.92 ± 0.21 h

Question: And the “total protein half-life in vivo” value [4]?
Answer: 6.65 ± 0.13 h

Question: And the “total protein half-life in vivo” value [5]?
Answer: 5.71 ± 0.24 h

Question: And the “total protein half-life in vivo” value [6]?
Answer: 3.24 ± 0.19 h

Question: What about the “total protein half-life in vivo” value [7] of the same sequence?
Answer: 6.27 ± 0.035 h

Question: What about the “total protein half-life in vivo” value [8] of the same sequence?
Answer: 12.62 ± 0.093 h

Question: And the “total protein half-life in vivo” value [9]?
Answer: 6.08 ± 0.13 h

Question: And the “total protein half-life in vivo” value [10]?
Answer: 11.8 ± 0.54 h

Question: And the “total protein half-life in vivo” value [11]?
Answer: 6.24 ± 0.16 h

Question: What about the “total protein half-life in vivo” value [12] of the same sequence?
Answer: 13.8 ± 0.27 h

Question: With “MSNTDASGEKRVTGTSERREQIIQRLRQQGSVQVNDLSALYGVSTVTIRNDLAFLEKQGIAVRAYGGALICDSTTPSVEPSVEDKSALNTAMKRSVAKAAVELIQPGHRVILDSGTTTFEIARLMRKHTDVIAMTNGMNVANALLEAEGVELLMTGGHLRRQSQSFYGDQAEQSLQNYHFDMLFLGVDAIDLERGVSTHNEDEARLNRRMCEVAERIIVVTDSSKFNRSSLHKIIDTQRIDMIIVDEGIPADSLEGLRKAGVEVILVGE [P0ACK2]” as the sequence, how does the “total protein half-life in vivo” value [2] read?
Answer: 6.24 ± 1 h

Question: And the “total protein half-life in vivo” value [3]?
Answer: 4.83 ± 0.21 h

Question: And the “total protein half-life in vivo” value [4]?
Answer: 5.24 ± 0.27 h

Question: What about the “total protein half-life in vivo” value [5] of the same sequence?
Answer: 5.04 ± 0.56 h

Question: What about the “total protein half-life in vivo” value [6] of the same sequence?
Answer: 3.02 ± 0.15 h

Question: What about the “total protein half-life in vivo” value [7] of the same sequence?
Answer: 5.31 ± 0.35 h

Question: What about the “total protein half-life in vivo” value [8] of the same sequence?
Answer: 9.94 ± 0.52 h

Question: And the “total protein half-life in vivo” value [9]?
Answer: 4.89 ± 0.46 h

Question: And the “total protein half-life in vivo” value [10]?
Answer: 9.31 ± 0.91 h

Question: What about the “total protein half-life in vivo” value [11] of the same sequence?
Answer: 5.05 ± 0.16 h

Question: What about the “total protein half-life in vivo” value [12] of the same sequence?
Answer: 9.52 ± 1.1 h

Question: With “MSNTPIELKGSSFTLSVVHLHEAEPKVIHQALEDKIAQAPAFLKHAPVVLNVSALEDPVNWSAMHKAVSATGLRVIGVSGCKDAQLKAEIEKMGLPILTEGKEKAPRPAPTPQAPAQNTTPVTKTRLIDTPVRSGQRIYAPQCDLIVTSHVSAGAELIADGNIHVYGMMRGRALAGASGDRETQIFCTNLMAELVSIAGEYWLSDQIPAEFYGKAARLQLVENALTVQPLN” as the sequence, how does the “total protein half-life in vivo” value [1] read?
Answer: 5.53 ± 0.29 h

Question: And the “total protein half-life in vivo” value [2]?
Answer: 5 ± 0.28 h

Question: And the “total protein half-life in vivo” value [3]?
Answer: 5.32 ± 0.053 h

Question: And the “total protein half-life in vivo” value [4]?
Answer: 5.84 ± 0.27 h

Question: What about the “total protein half-life in vivo” value [5] of the same sequence?
Answer: 4.34 ± 0.23 h

Question: What about the “total protein half-life in vivo” value [6] of the same sequence?
Answer: 2.977 ± 0.015 h

Question: And the “total protein half-life in vivo” value [7]?
Answer: 5.72 ± 0.27 h

Question: What about the “total protein half-life in vivo” value [8] of the same sequence?
Answer: 9.85 ± 0.83 h

Question: And the “total protein half-life in vivo” value [9]?
Answer: 5.25 ± 0.7 h

Question: What about the “total protein half-life in vivo” value [10] of the same sequence?
Answer: 8.75 ± 0.6 h

Question: And the “total protein half-life in vivo” value [11]?
Answer: 5.44 ± 0.24 h

Question: What about the “total protein half-life in vivo” value [12] of the same sequence?
Answer: 11.2 ± 1 h

Question: With “MSNTYQKRKASKEYGLYNQCKKLNDDELFRLLDDHNSLKRISSARVLQLRGGQDAVRLAIEFCSDKNYIRRDIGAFILGQIKICKKCEDNVFNILNNMALNDKSACVRATAIESTAQRCKKNPIYSPKIVEQSQITAFDKSTNVRRATAFAISVINDKATIPLLINLLKDPNGDVRNWAAFAININKYDNSDIRDCFVEMLQDKNEEVRIEAIIGLSYRKDKRVLSVLCDELKKNTVYDDIIEAAGELGDKTLLPVLDTMLYKFDDNEIITSAIDKLKRS [P0ADK6]” as the sequence, how does the “total protein half-life in vivo” value [1] read?
Answer: 5.51 ± 0.25 h

Question: What about the “total protein half-life in vivo” value [2] of the same sequence?
Answer: 4.904 ± 0.018 h

Question: And the “total protein half-life in vivo” value [3]?
Answer: 2.92 ± 1.5 h

Question: What about the “total protein half-life in vivo” value [4] of the same sequence?
Answer: 2.68 ± 0.43 h

Question: And the “total protein half-life in vivo” value [5]?
Answer: 1.77 ± 0.26 h

Question: And the “total protein half-life in vivo” value [6]?
Answer: 2.016 ± 0.02 h

Question: What about the “total protein half-life in vivo” value [7] of the same sequence?
Answer: 3.9 ± 0.61 h

Question: What about the “total protein half-life in vivo” value [8] of the same sequence?
Answer: 5.23 ± 0.093 h

Question: What about the “total protein half-life in vivo” value [9] of the same sequence?
Answer: 2.17 ± 0.22 h

Question: And the “total protein half-life in vivo” value [10]?
Answer: 2.62 ± 0.074 h

Question: And the “total protein half-life in vivo” value [11]?
Answer: 2.65 ± 0.32 h

Question: What about the “total protein half-life in vivo” value [12] of the same sequence?
Answer: 4.89 ± 1 h

— the supplement of paper PMC11246515
